The test has as its target human BCMA on cells (human) (UniProt Q02223). The test can be described thus: cell-based or functional assay.

Drawing on US20220089678A1, this text covers Killing (% killed), Effector:target ratio of 1:10 for 1 molecule.

Sequence of human BCMA on cells (human) (Q02223 whole entry): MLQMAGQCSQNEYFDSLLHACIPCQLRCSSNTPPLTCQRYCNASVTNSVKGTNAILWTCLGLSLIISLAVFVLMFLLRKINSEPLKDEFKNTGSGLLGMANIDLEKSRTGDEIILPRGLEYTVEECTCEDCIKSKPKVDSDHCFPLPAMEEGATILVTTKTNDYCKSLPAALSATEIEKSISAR

B1: CAR with OX40-CD3z cytoplasmic domain of SEQ ID: 105 (protein, part only; not given: anti-BCMA scFv, hinge, transmembrane, part only)
chain, part: RRDQRLPPDAHKPPGGGSFRTPIQEEQADAHSTLAKIRVKFSRSADAPAYQQGQNQLYNELNLGRREEYDVLDKRRGRDPEMGGKPRRKNPQEGLYNELQKDKMAEAYSEIGMKGERRRGKGHDGLYQGLSTATKDTYDALHMQALPPR
In the case of B1, the Killing (% killed), Effector:target ratio of 1:10 was 46%.
